Measurements: patent US20050221343A1
“And” between values parts separate entries of the source, which are not always exact repeats. Identical values can stand only once.

Key:
Experiment in all cases: cell-based or functional assay
[1] = target: (GFP S10 A10)-L1-NdeI::HPS::BamH1-L2-(GFP S11 SM5) (Pyrobaculum aerophilum)
[2] = target: (GFP S10)-L1-sulfite reductase-L2-(GFP S11) (Pyrobaculum aerophilum)
[3] = target: sulfite reductase-GFP S10-11 OPT fusion protein (Pyrobaculum aerophilum; Aequorea victoria)
[4] = target: (GFP S10 SM5)-L1-sulfite reductase-L2-(GFP S11 SM5) (Pyrobaculum aerophilum)
Sequence of (GFP S10 SM5)-L1-sulfite reductase-L2-(GFP S11 SM5) (Pyrobaculum aerophilum) (main, as listed by the source): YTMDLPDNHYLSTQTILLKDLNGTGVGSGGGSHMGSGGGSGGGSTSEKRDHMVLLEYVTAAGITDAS

Sequence of (GFP S10 A10)-L1-NdeI::HPS::BamH1-L2-(GFP S11 SM5) (Pyrobaculum aerophilum) (main, as listed by the source): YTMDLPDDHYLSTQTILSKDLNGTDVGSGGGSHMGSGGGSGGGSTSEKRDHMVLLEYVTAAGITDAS

complementation signal relative to detection with GFP 1-10 OPT [1]: 0.2 and 0.25
complementation efficiency relative to the C-terminal GFP S11 M3 + GFP 1-10 OPT format [2]: 0.033
tagged fragment concentration at which complementation fluorescence plateaus, with limiting 2.5 µM GFP 1-9 OPT [3]: > 2.5 µM
complementation rate [4]: 20 fold
Substance: GFP 1-9 OPT (from UniProt P42212 1-197)
